The values that follow come from patent US20250144214A1 (US Dept. of Health and Human Services, published 2025).

Read-outs that look alike come from different tables or passages of the source.

Broadly, the Kd is the concentration at which binding is half-saturated. Read a low Kd as tighter binding.

In test [1] the target is T1, glypican-2 (GPC2), as used in the binding affinity test (UniProt Q8N158 24-553, limits assumed).
T1 construct: It states neither the form of the antigen nor the assay
T1 sequence (looked up): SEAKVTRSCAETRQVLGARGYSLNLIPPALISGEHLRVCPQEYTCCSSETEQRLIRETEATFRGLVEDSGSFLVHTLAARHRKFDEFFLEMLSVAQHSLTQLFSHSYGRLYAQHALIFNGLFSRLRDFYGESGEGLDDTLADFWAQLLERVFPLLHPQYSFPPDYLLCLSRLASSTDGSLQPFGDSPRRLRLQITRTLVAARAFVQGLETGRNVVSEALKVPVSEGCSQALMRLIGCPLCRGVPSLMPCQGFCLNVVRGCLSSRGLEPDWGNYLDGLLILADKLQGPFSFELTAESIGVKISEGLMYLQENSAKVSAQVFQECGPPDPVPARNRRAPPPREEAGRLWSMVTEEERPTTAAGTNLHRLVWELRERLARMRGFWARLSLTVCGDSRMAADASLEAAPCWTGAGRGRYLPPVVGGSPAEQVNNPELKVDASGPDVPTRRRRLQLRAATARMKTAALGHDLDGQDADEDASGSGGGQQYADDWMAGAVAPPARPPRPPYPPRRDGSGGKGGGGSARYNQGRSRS
The experiment in a line: binding affinity for GPC2; method not stated (graphs in FIGS. 7A-7B).

In test [2] the target is T1, glypican-2 (GPC2), as used in the …. The experiment in a line: sensorgrams, Response (nm) against Time (unit inferred), traces at 200, 100 and 50 nM; instrument and immobilised partner not stated.
For test [3] the target is unchanged. The description is as above. This is another data set of the same source.

B1: hCT3-2 (humanized CT3 antibody) (antibody, V domains shown)
VH: QVQLVQSGAEVKKPGASVKVSCKASRFTFTDYNIHWVRQAPGQRLEWIGYINPNNGDIFYKQKFNGRVTITRDTSASTAYMELSSLRSEDTAVYYCVRSSNIRYTFDRFFDVWGQGTLVTVS
VL: DVVMTQSPAFLSVTPGEKVTITCRASSSVNYIYWYQQKPDQAPKLWIYYTSNLAPGVPSRFSGSGSGTDFTFTISSLEAEDAATYYCQQFSSSPSTFGQGTKLEIK
Molecule B1 had a binding affinity in test [1] of 3.6 nM. The molecule also gave a Kd in test [2] of 3.6 nM.

B2: hCT3-3 (humanized CT3 antibody) (antibody, V domains shown)
VH: QVQLVQSGAEVKKPGASVKVSCKASRFTFTDYNIHWVRQAPGQGLEWIGYINPNNGDIFYKQKFNGKATMTVDTSTSTVYMELSSLRSEDTAVYYCVRSSNIRYTFDRFFDVWGQGTLVTVS
VL: DIQMTQSPSSLSASVGDRVTITCRASSSVNYIYWYQQKSGKAPKLWIYYTSNLAPGVPSRFSGSGSGTDFTLTISSLQPEDFATYYCQQFSSSPSTFGQGTKLEIK
Take B2: in test [1], the binding affinity worked out at 2.5 nM. Moreover, in test [3], the Kd is 2.5 nM.

B3: hCT3-4 (humanized CT3 antibody) (antibody, V domains shown)
VH: QVQLVQSGAEVKKPGASVKVSCKASRFTFTDYNIHWVRQAPGQRLEWIGYINPNNGDIFYKQKFNGRVTITRDTSASTAYMELSSLRSEDTAVYYCVRSSNIRYTFDRFFDVWGQGTLVTVS
VL: EIVLTQSPATLSLSPGERATLSCRASSSVNYIYWYQQKPGQAPRLWIYYTSNLAPGIPARFSGSGSGTDFTLTISSLEPEDFAVYYCQQFSSSPSTFGQGTKLEIK
Take B3: in test [1], the binding affinity is 3.3 nM. For the same molecule, the Kd in test [3] worked out at 3.3 nM.

B4: CT3 antibody (parental murine GPC2-specific monoclonal antibody) (antibody, V domains shown)
VH: EVQLQQSGPELVKPGASVKMSCKASRFTFTDYNIHWVKQSPGKTLEWIGYINPNNGDIFYKQKFNGKATLTINKSSNTAYMELRSLTSEDSAVYYCVRSSNIRYTFDRFFDVWGTGTTVTVSS
VL: ENVLTQSPAIMSASLGEKVTMSCRASSSVNYIYWYQQKSDASPKLWIYYTSNLAPGVPARFSGSGSGNSYSLTISSMEGEDAATYYCQQFSSSPSTFGTGTKLELK
notes: also called parental CT3 antibody; murine antibody CT3
Regarding B4, the binding affinity in test [1] stood at 2.2 nM.

B5: hCT3-1 (humanized CT3 antibody) (antibody, V domains shown)
VH: QVQLVQSGAEVKKPGASVKVSCKASRFTFTDYNIHWVRQAPGQGLEWIGYINPNNGDIFYKQKFNGRVTLTADKSTSTAYMELSSLTSEDTAVYYCVRSSNIRYTFDRFFDVWGQGTLVTVSS
VL: DVVMTQSPLSLPVTPGEPASISCRASSSVNYIYWYLQKPGQSPQLWIYYTSNLAPGVPDRFSGSGSGTDFTLKISRVEAEDVGVYYCQQFSSSPSTFGQGTKLEIK
B5 came in with a binding affinity in test [1] of 4 nM. Also, the Kd in test [2] came out at 4 nM.
